Test: label from the status in PepcDB records

| Sequence | protein production |
| --- | --- |
| MDRPERSEVLSPEDFLQAMPIGKTASILDLGAGTGFLTIPAAKLVDNTVFALDLDAKMLELIESKAKEAGLANVETLEASMDDIPLEANSVDVVLASLVLHEADSLADVLREVSRVVKTGGYFASLEFDTKGTDLKGPPMEIQISAEKLKEELAGFGFEVVKNWQLDEGMYVSIAVKKLEHHHHHH | not failed |
| MDRRHEIYEWFRINRFKVDMTATCLLILLFGPVYLVADRPWLFLLSCSLLLPLAWRRTRPAVAAGVVILVCLVQWAVAAEPVAGQIAVPLVIYATAAYGPAWASRTVLLAGLLGGVMLTTRLFSTTAESGILGLTIGALYTVLIWMLVLVSWTLGDLTRVRRLQLQALEDRTRRLEVEQMQERKLAAADERSHIAREMHDIVAHSLSVIITQADGARYAAAAKPELATEALATIAATGRDSLGEMRRLLGVLRSDDDSPTRPQPRLSDLDELLLGFRAATLQVTFEQSGAPRRALPAGAELTAYRIIQEALTNVMKHAGPRATAAVTLAWQARGLQVDVVDDGRGAAADPPTAGGGNGLRGMGERVSLYDGSLTAGPEQGGGFRVSAFIPYSEA | failed |
| MDRRRFLVGLLGLGLARGQGLRVEEVVGGLEVPWALAFLPDGGMLIAERPGRIRLFREGRLSTYAELSVYHRGESGLLGLALHPRFPQEPYVYAYRTVAEGGLRNQVVRLRHLGERGVLDRVVLDGIPARPHGLHSGGRIAFGPDGMLYVTTGEVYERELAQDLASLGGKILRLTPEGEPAPGNPFLGRRGARPEVYSLGHRNPQGLAWHPKTGELFSSEHGPSGEQGYGHDEVNLIVPGGNYGWPRVVGRGNDPRYRDPLYFWPQGFPPGNLAFFRGDLYVAGLRGQALLRLVLEGERGRWRVLRVETALSGFGRLREVQVGPDGALYVTTSNRDGRGQVRPGDDRVLRLL | not failed |
| MDRVMRDDLHIMPPPAPLAMQAQDFSAGFRDALAPPDSPQRDVAPWRVLAFSPAMAATLALVWLMGDWFSDSGISVLEAVLLALISFNFFWIAFAASTVLLGMLSLSRQPARARAGRAEPLKVALLMPVYNEVPWYVLGNARTMLEELKARGGQHQYAMFILSDTRDDAIAAQEQASVEALRTTLAPDLALYYRRRVENTDRKVGNIADWVAGWGGAWDAMLVLDADSLMTGRAIARLTDALARDPGAGLIQSFPQLIGAQSVFARMQQFANGVYGAAFAEGMARWCGQEGNYWGHNAIIRTAAFANCAGLPKLRSLSGREKLIMSHDFVEAGLLRRAGWSVRFLPRIRGSYEETPPTLIDHVLRDRRWCQGNLQHLNLLNARGFRSVSRFHMFHGAIGYLMSPIWFALLVMWALIGHGQDGSVLQYFSPDNPLFPQWPEMTEGRHVLIIVVMYAMLLLPKLLGVLALPLSGAHYSDFGGAGRFLLSFLSEVVLSILYAPILMVQQMIAVFRTFLGIQKGWSPQARDGGTYGLGTLVKCHMLETLSGLALGTGIALGLVSVWLAPIALSLALAVPLSALSGVSAGTARRLIGMREEFREPAITRSARAYRNELKTLLERGSRIHPAE | failed |
| MDRWNMHKPMLCDSLPTASRTAAAILNLAQREDVTAEALAQLIQTDPALTGRILRFANAPAQGTRRPVASVIDAIDLVGLPAVRQFALSLSLIDAHREGRCEAFDYAAYWQKSLARAVALQSITAQASTVAPKEAFTLGLLADVGRLALATAWPEEYSECLRKADGEALIALERERFATDHDELTRMLLTDWGFPQVFIDALQLSQQDEIRDEGRTGRFARQLALAQHIADHRLAEEPRRAALSPLLRAEARRCGLGDEDLARLLADPPADWLDWTRTIGLEHHHHHH | not failed |
| MDSGCWLFGGEFEDSVFEERPERRSGPPASYCAKLCEPQWFYEETESSDDVEVLTLKKFKGDLAYRRQEYQKALQEYSSISEKLSSTNFAMKRDVQEGQARCLAHLGRHMEALEIAANLENKATNTDHLTTVLYLQLAICSSLQNLEKTIFCLQKLISLHPFNPWNWGKLAEAYLNLGPALSAALASSQKQHSFTSSDKTIKSFFPHSGKDCLLCFPETLPESSLFSVEANSSNSQKNEKALTNIQNCMAEKRETVLIETQLKACASFIRTRLLLQFTQPQQTSFALERNLRTQQEIEDKMKGFSFKEDTLLLIAEVMGEDIPEKIKDEVHPEVKCVGSVALTALVTVSSEEFEDKWFRKIKDHFCPFENQFHTEIQILA | failed |
| MDSGQIILNLVIIVITFFVAAFFVACEFALVQTRPSALEEEQKKRDKPSKRIATSLHMVRNLNEYLSTTQVGVSLAGIILGWIGEQTTEHFVLDFLSLFNLSVSTAVLRGISIVIGVFLLTYLEVVLTEIVPKNIAIDMPLKVMAVITTPLRWFHVMFYPFVWLLNVSSAGVVKMLGIPVANEDNDVYSQAEILNLSRNAVTGGELERNDYLYMERAFEFNDKIAKDIMIDRTQLVVIDINDTVKQAIRVYLQKRFSRLPVVANNDKDKILGYVYNYDLIRQGEVDDDIRVNKLLRNIITIPETTPIQAILQKMIDKQTPIVVVVDEYGGTSGIVTDKDIYEELFGTVNDEIDNVSNEYIEKQADGTYRISGKMTIYDFERYFKTDLQEFEDSDVVTLTGYILDNFPKIQAGDTIQIGNFNFKALDFENAYINWFEVSAQRDSTPDDHNDDQTQD | failed |
| MDSMDHRIERLEYYIQLLVKTVDMDRYPFYALLIDKGLSKEEGEAVMRICDELSEELATQKAQGFVTFDKLLALFAGQLNEKLDVHETIFALYEQGLYQELMEVFIDIMKHFD | not failed |
| MDSSNYFYGGNNICIINTKWGKHSGIGGYAEIIDTLVGNFTNISSWAKIGIRDHIHTNFLICDFVYKDNDHIMPPGISSFEDYWVKIGNDVWVGTNVTILRGVEVGDGAVIAAGSVVTKSIPPYAIVGGNPAKFIKWRFPFEVREKLLEIKLEHHHHHH | failed |
| MDTFNYQNFYNQEYYLNMVPGIPYDREAHGGHWLRFFNTVADRLINYVSPTSVLDVGCAKGFLLEAFYNRGILVHGFDYSEYAISCVREDLKPFAFVASAANSNAFLEKQDSYDLITCIEVVEHMPRDEAWLAIKNMCQSAKSIFFSSTSDDFAEPTHLTVLPRIYWLETFLSFGFVPDYKFDIHDLIPHGILLRKIDDNLTAFKMLIEVNETNLEVIKQQKIDIEKLNSEKVNLENKLQQTQTELERSHSQLQQTQTELERSHSQLQQTQTELERSHSQLQQTQTELERSHSQLQQTQTELERSHSQLHQTQTELERSQSQLQQTQTELERSQSQLQQIQMALTLPQSQLYQMQTELEHWKNLVDWMEGSRFWKLRALCLSLKKKIINFPIIKLDFGSLPVFRKNNYPIFVKRTGKLIKNQIMSFRTQNDFADEILAGVLQSFAESPEYSQWIKDYEAKNDELKEQRINAASFPYQPVLSIILPVYKLPLTVLQETINSVIQQTYSNWELCIAFADIDNYQTIDYLKTLSLQEKRIKLKVMAENKGISGNSNVSLNMASGEFVALLDHDDLLAPFAFYEVISELNKQPDLDFIYSDKDCISANSMVRSRLLLKPEWSPEILYSANYLTHLCIARRTLLEKIGGFRPETDGAQDWDLFLRITENTSRIARINSVLYHWRIIQGSTSLGIDSKPYALEGQLRSIQDHLTRTKLPATVSPHPESGFRLEWQASSAEVSIYIDGDVSWDSLSACIHAVSEFADPKLHKATIVLAEHTYTSKATERENLITAVNLPIDWLPIKEGDSKLATLANTIKQDKTDVVVFVSGLVKKFTEGWIQELSGWVLNHPDIGFVSSLVLTDNNLVVEAGLVVDQYNNGSPLMRGNFLYSWDIFGGALWYRNCSASSPWSIAFSYKNYLEGGGLPSNSPSLSHSMIKLCQAIRVNNKRGLVNPHARAFLQDLPKNDIPEFDDSLGNDPYFHPAFSSVVPLKLRVKNGKKN | failed |
| MDTIRSIFIIWKDDRMSFLNNSIIYHIAIILYACSISLYFIDYFQSNRKANRFAFWLLSIVWVLHSIFMLLRATDSETNPLLTLLSGIYFYVWLLITMSLVINRFMRIDFLVFFTNVVAFGVSAFSIFTPLGKMSPVLAEQLVSELVYVHVGMAIISYATFTVSFIFSIMYLLQYRLLKKKKWNARLRRLGNLPKLESMSYGLNLFSVPFFLLAILLGCIWGYTKLDNFHWYDTKVIGSFVVLFVYCAGLYLRAADVLQGKKIVQWNIGAFLVMLINIFLLSSLSNFHFWYL | failed |
| MDTKHFLPLDFSTQVNSSLTSPTGRGSMAAPSLHPSLGPGIGSPGQLHSPISTLSSPINGMGPPFSVISSPMGPHSMSVPTTPTLGFSTGSPQLSSPMNPVSSSEDIKPPLGLNGVLKVPAHPSGNMASFTKHICAICGDRSSGKHYGVYSCEGCKGFFKRTVRKDLTYTCRDNKDCLIDKRQRNRCQYCRYQKCLAMGMKREAVQEERQRGKDRNENEVESTSSANEDMPVERILEAELAVEPKTETYVEANMGLNPSSPNDPVTNICQAADKQLFTLVEWAKRIPHFSELPLDDQVILLRAGWNELLIASFSHRSIAVKDGILLATGLHVHRNSAHSAGVGAIFDRVLTELVSKMRDMQMDKTELGCLRAIVLFNPDSKGLSNPAEVEALREKVYASLEAYCKHKYPEQPGRFAKLLLRLPALRSIGLKCLEHLFFFKLIGDTPIDTFLMEMLEAPHQMT | failed |
| MDTQTVAAYDTLAETFAREWREQPAPDDLYALLRRMFKAGGDTVDIGCGAGREVAWLNANGYPAVGYDASAGLLEAARTQYPGLSFRRAMLPELVGIAEGAFDNVVCETVIMHLPPAQIGAAVRRLLALLRPGGTLYLSWRVTPEADQRDGRGRLYTAFDAAGVREALAGAQVLFDEVAVSQSSGLEHHHHHH | not failed |
| MDTTAVLLKGPKDLDVDTLQLHVPGDGDLVVEIEHSGISTGTEKLFWSGEMPPFPGMGYPLVPGYEAVGEVVEADRATGFKVGERVFVPGANCYDGAFGLFGGAASRVVTASDRVTRIDAGHGASGALLALAATARHSMAGLNKSVPDLIVGHGVLGRLLARLTIAAGAPAPMVWEIDESRRKGAQGYEVIAPEDDPRRDYTSVYDASGSVEVLNDLVGRLAKGGEIVLAGFYTTAISFAFPPAFMKEARFRVAAEWTHDDLAATRALVEGGSLSLENLITHQASHLNARAAYAQAFTDPDCLKMILNWKDVA | failed |
| MDTVPPRTYNNSNFPEGLPAVSLSDEERARQQRWTPLRVTIWILISAIAGLGWWMLAVRRGETVNGIWFVFAAIGSYFIGYRFYAKYIQDKLVHPDDSRATPAEYDYNGRDFVPTDRRILYGHHFAAIAGAGPLVGPVLSAQMGYLPSTIWIIVGVILAGAVQDYLVLVISMRRGGRSLGQMAREELGRFGGIAALIATLTIMLIIVAILAMVVVNSLAASSWGVWSVGLTIPIALLMGFYLRYLRPGKVFEVSIIGIVLLVLAIASGAWIENTAVASALHLSKPFLAWAIIIYGFIAAVLPVWMLLAPRDYLSTFMKVGVIAMLAISIVIVRPVINVPAMTVYATNGAGPVFSGKLFPFLFVTIACGALSGFHATISSGTTPKLIEKESQARLIGYGGMLMESFVAIMALVAALSVDRGIYFAMNSPAGATGNTVKSAIAYVNSLGLSGVHANANTLTTTAKLVGETSIVSRTGGAPTLAVGLATIMHKIFGGEAMMSFWYHFAIMFEALFILTSVDAGTRVARFMLSDALGNFWPRLKDHSWKVGSWLTTAIMVAGWGSILLMGVTDPLGGINTLFPLFGIANQLLAAVALSICLVIFARAGHTWRLLIIFVPMLFTAIITVYGSWLKIFSPDPKLGYWANHMTYKRAIADGKTSLGQAKNIDEMHTVVGNTAIQGTMSIIFVVCALIVMIVACIRTVQALRGRNIIDTEDPAKPSKIFAPSGLMPTKAERDLQVEWDAFYEEHPELDLESVHKDKEHA | failed |
| MDTVTKLSIIIPAWNEETGIARTLETLLALTAGRGDTEIIVSVSGNDRTKAIARTFPVVVCHSEKGRAVQMNAGAKLATGSILYFLHADTTPPPSFCDDIFSAIERGARAGCFRMTFDDPDWLMQLYGWFTQFPLPVCRGGDQSLFITKELFGQIGGFDERLQIMEDIEIIDRLQRHAGFHILDSTVTTSARKYHTNGTVRLQAIFGTIHLMYALGFSQKNIVAFYRDSIRLEHHHHHH | not failed |

From a protein production outcome set (Wang et al. 2014)
